Experimental data published in patent US20090087478A1 (PROGENICS PHARMACEUTICALS NEVADA, published 2009).
Like-named read-outs stand apart in the source and are kept apart here.

Experiments:
[1] = target: T1, ToxA:2459-2710 (C-terminal eleven repeats of the toxin A CWB domain) (Clostridium difficile, UniProt P16154 2459-2710)
[2] = target: T1, ToxA:2459-2710 (C-terminal eleven …); assay: SPR, apparent KD
[3] = target: T2, ToxB:1807-2366 (CWB domain of C. difficile toxin B, expressed in E. coli) (Clostridium difficile, UniProt P18177 1807-2366); assay: SPR, toxin domain immobilised, apparent Kd
T2 construct: range 1807-2366

| Binder | Kd [1] | Kd [2] | Kd [3] |
| --- | --- | --- | --- |
| Antibody 3358 (or 543), murine monoclonal anti-toxin A antibody (antibody, V domains shown) VH: QVQLQQPGAELVKPGASVRLSCKAGGYTFTSYWLHWVKQRPGQGLEWIGMIHPNSGSYDYSETFRTKATLTVDKSSDTAYMQLTSLTSEDSAVYYCARGGSNYDIFAYWGQGTTLTVSS VL: NIVMTQSPKSMSMSVGERVTFNCRASENVGTYVFWYQQKPEQSPRLLIYGASNRYTGVPDRFTGSGSATDFTLTISGVQAEDLADYHCGQSYRHLTFGGGTKLEIK | 0.7 nM | < 30 nM |  |
| Antibody 227 (or 3359), murine monoclonal anti-toxin A antibody (antibody, V domains shown) VH: EVQLVESGGGLMKPGGSLKLSCAASGFAFGSYDMSWVRQTPEKRLEWVAYISSGGGITFYPDSVRGRFTISRDNAKNSLYMEMSSLRSEDTAMYYCARWDWDLFAYWGQGTLVTVSA VL: DIKMTQSPSSMYTSLGERVTITCKASQDINSCLSWFQQKPGKSPKALIFRANILVDGVPSRFSGSGSGQDYSLTISSLEYEDLGIYYCLQYDEFPWTFGGGTRLEIK | 12 nM |  |  |
| Antibody F87, murine monoclonal anti-toxin B antibody (antibody, V domains shown) VH: QVQLQQPGTELVKPGASVKLSCKASGYTFTNYWMHWVKQRPGQGLEWVGNINPSNGGTNYNEKFKSKATLTVDKSSSTAYMQLSSLTSEDSAFYYCARGRGPPYYSDYWGQGSTLTVSS VL: NIQMTQSPASLSASVGETVTITCRASGNIHNYLAWYQQKQGKSPQLLVYNAKTLADGVPSRFSGSGSGTQYSLKINSLQPEDFGSYYCQHFWSTPFTFGSGTKLEIK |  |  | 0.05 nM |
| rPBA-3, chimeric recombinant form of anti-toxin A monoclonal antibody PBA-3 (wildtype, plasmids BD12584 heavy and BD12585 light) (antibody, V domains shown) VH: QVQLQQSGPELVKPGASVRISCKASGFTFTSYHVNWVKQRPGQGLEWIGWIYPGNVNTEYNEKFKGKATLTADKSSSTAYMQLSSLTSEDSAVYFCASHEYYGSDWYFDVWGAGTTVTVSS VL: DAVMTQTPLSLPVSLGDQASISCRSSQSLENRNGNTYLNWYLQKPGQSPQLLIYRVSNRFSGVLDRFSGSGSGTDFTLKISRVEAEDLGVYFCLQVTHVPYTFGGGTKLEIK | 60 nM |  |  |
